In US20200247849A1, “PEPTIDE AGONISTS AND ANTAGONISTS OF TLR4 ACTIVATION” (PEPTICOM LTD, priority 2016, published 2020):

Target: T1, CD14-TLR4 (Homo sapiens, UniProt P08571)
T1 construct: expressed in transfected cells; host or cells: NIH3T3
T1 sequence (P08571 20-345 limits assumed): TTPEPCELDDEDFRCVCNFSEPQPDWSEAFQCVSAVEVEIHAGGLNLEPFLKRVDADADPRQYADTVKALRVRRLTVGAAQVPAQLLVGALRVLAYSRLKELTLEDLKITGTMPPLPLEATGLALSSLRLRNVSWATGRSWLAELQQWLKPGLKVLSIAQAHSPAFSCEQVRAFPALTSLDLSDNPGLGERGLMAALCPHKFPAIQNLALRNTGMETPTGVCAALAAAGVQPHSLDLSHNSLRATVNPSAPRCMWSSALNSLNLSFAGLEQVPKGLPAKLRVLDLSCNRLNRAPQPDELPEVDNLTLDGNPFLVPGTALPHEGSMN
Experiment: Reporter gene assay, NIH3T3 cells transfected with CD14 and TLR4, LPS-mediated activation
Format: cell-based
Settings: FIG. 6I
Description: FIGS. 6A-6V present peptide activity using NIH3T3 cells that express TLR4, with either the MD2 co-receptor (top) or CD14 co-receptor (bottom), for peptides of SEQ ID Nos. 1-22, respectively, according to some embodiments of the invention. FIGS. 6A-6V show the dose response inhibitor/activator effects of the designed peptides using a reporter gene assay. The reporter gene assay is composed of NIH3T3 cells transfected with either MD2 or CD14 along with TLR4 and the NF-κB-inducible reporter gene Secreted Alkaline Phosphatase (SEAP) to monitor TLR4 activation (Burger-Kentischer et al. 2010, A new cell-based innate immune receptor assay for the examination of receptor activity, ligand specificity, signaling pathways and the detection of pyrogens. J Immunol Methods. 358(1-2): 93-103). […] The receptors are coupled to for the detection of inhibitory activity, cells were treated with the peptide prior to exposure to LPS and the response to LPS is measured at variable peptide doses (as labeled). […]
At Day 3: To determine the final SEAP value, 50 μl of the supernatant is carefully transferred in a new 96-well plate (Greiner-F-plate) and 50 μl of the substrate (pNPP; p-nitrophenyl phosphate) is added. SEAP catalyzes the hydrolysis of pNPP to the final product para-nitrophenol (yellow) which can be detected by a photometric analysis using an UV-VIS reader at 405 nm. […]

inhibition of LPS mediated CD14-TLR4 activation: inability of to inhibit
Sequence: ILFMGMKWL (Inhibitor) [SEQ ID No. 9]
